# Measured values reported in paper PMC3964825.
# B1: HOTAIR 1-100 (structured_RNA)
# RNA: GACUCGCCUGUGCUCUGGAGCUUGAUCCGAAAGCUUCCACAGUGAGGACUGCUCCGUGGGGGUAAGAGAGCACCAGGCACUGAGGCCUGGGAGUUCCACA
# B2: HOTAIR 212-300 (minHOTAIR) (structured_RNA)
# RNA: GGAACGGAUUUAGAAGCCUGCAGUAGGGGAGUGGGGAGUGGAGAGAGGGAGCCCAGAGUUACAGACGGCGGCGAGAGGAAGGAGGGGCGGAU
# B3: HOTAIR 101-300 (structured_RNA)
# RNA: GACCAACACCCCUGCUCCUGGCGGCUCCCACCCGGGGCUUAGACCCUCAGGUCCCUAAUAUCCCGGAGGUGCUCUCAAUCAGAAAGGUCCUGCUCCGCUUCGCAGUGGAAUGGAACGGAUUUAGAAGCCUGCAGUAGGGGAGUGGGGAGUGGAGAGAGGGAGCCCAGAGUUACAGACGGCGGCGAGAGGAAGGAGGGGCGGAU
# B4: HOTAIR 201-300 (structured_RNA)
# RNA: GCAGUGGAAUGGAACGGAUUUAGAAGCCUGCAGUAGGGGAGUGGGGAGUGGAGAGAGGGAGCCCAGAGUUACAGACGGCGGCGAGAGGAAGGAGGGGCGGAU
# Columns and labels:
# Test in all cases: EMSA
# [1] = target: EZH2-EED (UniProt Q15910;O75530 1-746;1-441)
# [2] = target: LSD1 (UniProt O60341 1-852)
# [3] = target: PRC2 3m (EZH2-EED-SUZ12) (UniProt Q15910;O75530;Q15022 1-746;1-441;1-739)
# Sequence of PRC2 3m (EZH2-EED-SUZ12) (Q15910 whole entry, chain 1 of 3): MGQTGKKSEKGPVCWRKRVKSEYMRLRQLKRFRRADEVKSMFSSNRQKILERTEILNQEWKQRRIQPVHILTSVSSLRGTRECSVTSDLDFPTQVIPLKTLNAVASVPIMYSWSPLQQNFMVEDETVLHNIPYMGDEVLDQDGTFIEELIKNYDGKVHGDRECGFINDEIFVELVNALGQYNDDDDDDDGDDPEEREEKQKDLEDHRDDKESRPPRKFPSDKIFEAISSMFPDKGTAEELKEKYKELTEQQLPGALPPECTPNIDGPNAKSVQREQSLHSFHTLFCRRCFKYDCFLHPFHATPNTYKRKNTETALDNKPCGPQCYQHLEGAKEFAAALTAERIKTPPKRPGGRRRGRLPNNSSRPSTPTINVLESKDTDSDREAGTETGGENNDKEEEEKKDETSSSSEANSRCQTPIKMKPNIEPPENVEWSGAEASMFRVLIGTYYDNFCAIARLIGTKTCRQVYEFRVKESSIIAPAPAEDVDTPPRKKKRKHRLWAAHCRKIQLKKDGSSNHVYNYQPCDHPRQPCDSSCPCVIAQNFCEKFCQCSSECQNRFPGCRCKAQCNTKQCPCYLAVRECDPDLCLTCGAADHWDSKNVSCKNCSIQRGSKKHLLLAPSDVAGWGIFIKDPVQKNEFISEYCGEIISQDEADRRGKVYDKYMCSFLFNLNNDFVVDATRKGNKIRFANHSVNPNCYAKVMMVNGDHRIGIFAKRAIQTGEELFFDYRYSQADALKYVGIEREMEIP
# Sequence of PRC2 3m (EZH2-EED-SUZ12) (O75530 whole entry, chain 2 of 3): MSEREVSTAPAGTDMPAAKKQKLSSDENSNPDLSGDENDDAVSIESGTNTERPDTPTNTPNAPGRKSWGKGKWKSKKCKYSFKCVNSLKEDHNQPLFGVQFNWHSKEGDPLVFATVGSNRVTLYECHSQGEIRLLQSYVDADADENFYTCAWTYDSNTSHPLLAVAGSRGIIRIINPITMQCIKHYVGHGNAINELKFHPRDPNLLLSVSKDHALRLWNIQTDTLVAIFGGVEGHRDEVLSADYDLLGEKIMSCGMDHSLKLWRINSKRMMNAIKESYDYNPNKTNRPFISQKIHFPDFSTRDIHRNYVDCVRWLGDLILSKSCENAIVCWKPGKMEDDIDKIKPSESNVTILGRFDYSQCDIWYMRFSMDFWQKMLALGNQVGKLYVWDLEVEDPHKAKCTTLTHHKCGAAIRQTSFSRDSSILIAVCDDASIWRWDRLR
# Sequence of PRC2 3m (EZH2-EED-SUZ12) (Q15022 whole entry, chain 3 of 3): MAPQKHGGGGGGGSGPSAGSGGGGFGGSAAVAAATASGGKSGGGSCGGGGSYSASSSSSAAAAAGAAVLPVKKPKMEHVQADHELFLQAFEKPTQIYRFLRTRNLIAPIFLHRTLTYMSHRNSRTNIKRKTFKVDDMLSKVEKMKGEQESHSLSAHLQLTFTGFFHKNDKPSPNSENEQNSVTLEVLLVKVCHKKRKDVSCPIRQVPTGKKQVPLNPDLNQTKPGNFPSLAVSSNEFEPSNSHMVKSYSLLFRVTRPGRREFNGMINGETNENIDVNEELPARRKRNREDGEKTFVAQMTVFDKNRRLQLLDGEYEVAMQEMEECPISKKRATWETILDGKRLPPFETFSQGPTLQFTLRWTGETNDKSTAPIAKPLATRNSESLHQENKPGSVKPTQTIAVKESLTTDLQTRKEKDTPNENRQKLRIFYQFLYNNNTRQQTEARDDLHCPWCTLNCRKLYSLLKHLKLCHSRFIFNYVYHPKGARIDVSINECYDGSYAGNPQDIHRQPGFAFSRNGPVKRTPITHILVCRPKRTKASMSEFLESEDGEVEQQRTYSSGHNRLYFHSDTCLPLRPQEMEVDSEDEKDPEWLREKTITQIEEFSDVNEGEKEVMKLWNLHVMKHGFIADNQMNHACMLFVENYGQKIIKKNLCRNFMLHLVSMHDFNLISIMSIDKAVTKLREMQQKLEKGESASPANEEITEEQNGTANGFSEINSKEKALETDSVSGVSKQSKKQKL
# Sequence of EZH2-EED (Q15910 whole entry, chain 1 of 2): as the sequence (Q15910 whole entry, chain 1 of 3) above
# Sequence of EZH2-EED (O75530 whole entry, chain 2 of 2): as the sequence (O75530 whole entry, chain 2 of 3) above
Binder,binding result [1],binding result [2],Kd [3] [nM],Kd [1] [nM]
B1,no binding,–,–,–
B2,–,no binding,111 ± 10,135 ± 20
B3,–,–,–,119 ± 18
B4,–,–,–,157 ± 12
